The values below come from the Human Domainome abundance scans (Beltran et al. 2025).

First the molecules themselves.
B1: Steroid hormone receptor ERR2, residues 100 to 176; numbered along this chain, O95718 (parent)
chain: KRLCLVCGDIASGYHYGVASCEACKAFFKRTIQGNIEYSCPATNECEITKRRRKSCQACRFMKCLKVGMLKEGVRLD

± gives the uncertainty stated by the source.

Variants of B1 are the subject of the data set. As to the kind of experiment: abundance fitness (aPCA) (normalised: wild type 0, dead -1); higher = more abundant; growth selection in yeast, the domain comes from the species named. The following applies: Homo sapiens.
In the case of KRLCLVCGDIASGYHYGVASCEACKAFFKRTIQGIIEYSCPATNECEITKRRRKSCQACRFMKCLKVGMLKEGVRLD [N35I], the abundance fitness is -0.593 ± 0.17. Consider KRLCLVCGDIASGYHYGVASCEACKAFFKRTIQGQIEYSCPATNECEITKRRRKSCQACRFMKCLKVGMLKEGVRLD [N35Q], for which the abundance fitness is 0.05 ± 0.055.

For the variant KRLCLVCGDIASGYHYGVASCEACKAFFKRTIQGHIEYSCPATNECEITKRRRKSCQACRFMKCLKVGMLKEGVRLD [N35H], the abundance fitness was found to be 0.031 ± 0.094. Take KRLCLVCGDIASGYHYGVASCEACKAFFKRTIQGVIEYSCPATNECEITKRRRKSCQACRFMKCLKVGMLKEGVRLD [N35V]: the abundance fitness is -0.133 ± 0.045.

KRLCLVCGDIASGYHYGVASCEACKAFFKRTIQGRIEYSCPATNECEITKRRRKSCQACRFMKCLKVGMLKEGVRLD [N35R]: the abundance fitness was -0.047 ± 0.038. The value for KRLCLVCGDIASGYHYGVASCEACKAFFKRTIQGCIEYSCPATNECEITKRRRKSCQACRFMKCLKVGMLKEGVRLD [N35C] was -0.12 ± 0.073; that for KRLCLVCGDIASGYHYGVASCEACKAFFKRTIQGYIEYSCPATNECEITKRRRKSCQACRFMKCLKVGMLKEGVRLD [N35Y] was -0.178 ± 0.12; that for KRLCLVCGDIASGYHYGVASCEACKAFFKRTIQGTIEYSCPATNECEITKRRRKSCQACRFMKCLKVGMLKEGVRLD [N35T] was -0.017 ± 0.056. For the variant KRLCLVCGDIASGYHYGVASCEACKAFFKRTIQGDIEYSCPATNECEITKRRRKSCQACRFMKCLKVGMLKEGVRLD [N35D], the abundance fitness was 0.111 ± 0.079.

For the variant KRLCLVCGDIASGYHYGVASCEACKAFFKRTIQGKIEYSCPATNECEITKRRRKSCQACRFMKCLKVGMLKEGVRLD [N35K], the abundance fitness came to 0.027 ± 0.055.

In the case of KRLCLVCGDIASGYHYGVASCEACKAFFKRTIQGWIEYSCPATNECEITKRRRKSCQACRFMKCLKVGMLKEGVRLD [N35W], the abundance fitness was -0.298 ± 0.057. The value for KRLCLVCGDIASGYHYGVASCEACKAFFKRTIQGAIEYSCPATNECEITKRRRKSCQACRFMKCLKVGMLKEGVRLD [N35A] was 0.069 ± 0.045; that for KRLCLVCGDIASGYHYGVASCEACKAFFKRTIQGPIEYSCPATNECEITKRRRKSCQACRFMKCLKVGMLKEGVRLD [N35P] was 0.012 ± 0.069. On to KRLCLVCGDIASGYHYGVASCEACKAFFKRTIQGEIEYSCPATNECEITKRRRKSCQACRFMKCLKVGMLKEGVRLD [N35E], for which the abundance fitness was determined as 0.157 ± 0.046. Then KRLCLVCGDIASGYHYGVASCEACKAFFKRTIQGFIEYSCPATNECEITKRRRKSCQACRFMKCLKVGMLKEGVRLD [N35F], with -0.275 ± 0.12; and KRLCLVCGDIASGYHYGVASCEACKAFFKRTIQGLIEYSCPATNECEITKRRRKSCQACRFMKCLKVGMLKEGVRLD [N35L], with -0.298 ± 0.05.

Consider KRLCLVCGDIASGYHYGVASCEACKAFFKRTIQGMIEYSCPATNECEITKRRRKSCQACRFMKCLKVGMLKEGVRLD [N35M], for which the abundance fitness was -0.317 ± 0.067. For KRLCLVCGDIASGYHYGVASCEACKAFFKRTIQGSIEYSCPATNECEITKRRRKSCQACRFMKCLKVGMLKEGVRLD [N35S], the abundance fitness is -0.129 ± 0.053.

With KRLCLVCGDIASGYHYGVASCEACKAFFKRTIQGGIEYSCPATNECEITKRRRKSCQACRFMKCLKVGMLKEGVRLD [N35G], the abundance fitness is 0.271 ± 0.035. Then KRLCLVCGDIASGYHYGVASCEACKAFFKRTIQGNNEYSCPATNECEITKRRRKSCQACRFMKCLKVGMLKEGVRLD [I36N], with -0.185 ± 0.13; and KRLCLVCGDIASGYHYGVASCEACKAFFKRTIQGNPEYSCPATNECEITKRRRKSCQACRFMKCLKVGMLKEGVRLD [I36P], with -0.182 ± 0.081; and KRLCLVCGDIASGYHYGVASCEACKAFFKRTIQGNYEYSCPATNECEITKRRRKSCQACRFMKCLKVGMLKEGVRLD [I36Y], with -0.235 ± 0.09. The value for KRLCLVCGDIASGYHYGVASCEACKAFFKRTIQGNMEYSCPATNECEITKRRRKSCQACRFMKCLKVGMLKEGVRLD [I36M] was -0.074 ± 0.056; that for KRLCLVCGDIASGYHYGVASCEACKAFFKRTIQGNLEYSCPATNECEITKRRRKSCQACRFMKCLKVGMLKEGVRLD [I36L] was -0.162 ± 0.048; that for KRLCLVCGDIASGYHYGVASCEACKAFFKRTIQGNGEYSCPATNECEITKRRRKSCQACRFMKCLKVGMLKEGVRLD [I36G] was -0.273 ± 0.041. The value for KRLCLVCGDIASGYHYGVASCEACKAFFKRTIQGNQEYSCPATNECEITKRRRKSCQACRFMKCLKVGMLKEGVRLD [I36Q] was -0.16 ± 0.064; that for KRLCLVCGDIASGYHYGVASCEACKAFFKRTIQGNHEYSCPATNECEITKRRRKSCQACRFMKCLKVGMLKEGVRLD [I36H] was -0.167 ± 0.11; that for KRLCLVCGDIASGYHYGVASCEACKAFFKRTIQGNKEYSCPATNECEITKRRRKSCQACRFMKCLKVGMLKEGVRLD [I36K] was -0.129 ± 0.062. As to KRLCLVCGDIASGYHYGVASCEACKAFFKRTIQGNVEYSCPATNECEITKRRRKSCQACRFMKCLKVGMLKEGVRLD [I36V], the abundance fitness worked out at 0.003 ± 0.044.

As to KRLCLVCGDIASGYHYGVASCEACKAFFKRTIQGNREYSCPATNECEITKRRRKSCQACRFMKCLKVGMLKEGVRLD [I36R], the abundance fitness is -0.26 ± 0.043. The value for KRLCLVCGDIASGYHYGVASCEACKAFFKRTIQGNWEYSCPATNECEITKRRRKSCQACRFMKCLKVGMLKEGVRLD [I36W] was -0.231 ± 0.053; that for KRLCLVCGDIASGYHYGVASCEACKAFFKRTIQGNAEYSCPATNECEITKRRRKSCQACRFMKCLKVGMLKEGVRLD [I36A] was -0.032 ± 0.048. The value for KRLCLVCGDIASGYHYGVASCEACKAFFKRTIQGNCEYSCPATNECEITKRRRKSCQACRFMKCLKVGMLKEGVRLD [I36C] was -0.037 ± 0.076; that for KRLCLVCGDIASGYHYGVASCEACKAFFKRTIQGNFEYSCPATNECEITKRRRKSCQACRFMKCLKVGMLKEGVRLD [I36F] was -0.095 ± 0.11; that for KRLCLVCGDIASGYHYGVASCEACKAFFKRTIQGNTEYSCPATNECEITKRRRKSCQACRFMKCLKVGMLKEGVRLD [I36T] was -0.288 ± 0.078.
